Experiment [1] has as its target recombinant human KLK5 (human) (UniProt Q9Y337). The experiment is described as follows: SPR BIAcore T200, antibody captured by anti-human Fc, human KLK5 as analyte, 37 C. A general note: Surface plasmon resonance follows binding to a sensor surface in real time, without labels.
For experiment [2] the target is unchanged. The experiment in a line: pro-KLK1 coupled assay, 0.5 nM KLK5.
The target is the same in experiment [3]. The experiment in a line: pro-KLK1 LC/MS assay, 0.5 nM KLK5.
Experiment [4] shares this target. The experiment is described as follows: pro-KLK7 coupled assay, 5 nM KLK5.
Experiment [5] has the same target. The experiment in a line: pro-KLK1 LC/MS assay, 0.5 nM KLK5, 300 nM pro-KLK1; box column 1 of 3; no unit printed, nM per text.
Experiment [6] shares this target. The experiment in a line: Kiapp as the y-intercept of the line of IC50 (nM) versus KLK5 (nM), Z-VPR-pNA.
Experiment [7] shares this target. The experiment is described as follows: pro-KLK1 LC/MS assay, 0.5 nM KLK5, 300 nM pro-KLK1; box column 2 of 3; no unit printed, nM per text.
Experiment [8] has the same target. The experiment in a line: pro-KLK7 LC/MS assay, 5 nM KLK5, 15 nM pro-KLK7, nM.
For experiment [9] the target is unchanged. The experiment is described as follows: pro-KLK1 coupled assay, 0.5 nM KLK5, 31.25 nM pro-KLK1, PFR-AMC.
The target is the same in experiment [10]. The experiment in a line: direct activity assay, 5 nM KLK5, Boc-VPR-AMC.
The target is the same in experiment [11]. The experiment in a line: Kiapp, KLK5 0.5-0.0625 nM, Z-VPR-pNA.
The target is the same in experiment [12]. The experiment in a line: array SPR imaging (IBIS MX96), antibody amine-coupled, human KLK5 injected 0-300 nM, 25 C.
Experiment [13] has the same target. The experiment is described as follows: KLK5 direct activity assay, 5 nM KLK5, Boc-VPR-AMC.
Experiment [14] has the same target. The experiment in a line: pro-KLK7 LC/MS assay, 5 nM KLK5.
For experiment [15] the target is unchanged. The experiment in a line: pro-KLK7 coupled assay, 5 nM KLK5, 125 nM pro-KLK7, suc-LLVY-AMC.
The target is the same in experiment [16]. The experiment is described as follows: pro-KLK1 LC/MS assay, 0.5 nM KLK5, 300 nM pro-KLK1; box column 3 of 3; no unit printed, nM per text.

One may read the Kd as the equilibrium constant for the complex coming apart. For orientation: koff means the first-order rate constant of dissociation. The term kon denotes the second-order rate constant of association. Broadly, the IC50 is the concentration that inhibits the measured activity by half.

recombinant human KLK5 (human), sequence (Q9Y337 67-293): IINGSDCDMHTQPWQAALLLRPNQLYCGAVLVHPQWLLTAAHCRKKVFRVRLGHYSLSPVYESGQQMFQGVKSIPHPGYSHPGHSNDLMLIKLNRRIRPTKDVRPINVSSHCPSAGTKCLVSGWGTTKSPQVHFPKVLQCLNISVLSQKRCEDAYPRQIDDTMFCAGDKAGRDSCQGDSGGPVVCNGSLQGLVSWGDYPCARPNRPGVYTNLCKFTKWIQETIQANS

B1: hu9H5.L4H14 (antibody, V domains shown)
VH: EVQLVESGGGLIQPGGSLRLSCAASGFSLSSYGVSWVRQAPGKGLEYVGFIGSGGFAYYASWAKSRFTISRDNSKNTLYLQMNSLRAEDTAVYYCARDDVGGGKSLDIWGQGTLVTVSS
VL: DIQMTQSPSSLSASVGDRVTITCQASQSISSYLSWYQQKPGKAPKLLIYSASTLASGVPSRFSGSGSGTDFTLTISSLQPEDFATYYCHQDYTSSNVDNTFGGGTKVEIK
Take B1: in [1], the dissociation constant (Kd) was 0.694 nM, the koff stood at 0.000562 s⁻¹ and the kon was found to be 810000 M⁻¹ s⁻¹.

B2: 2B11 (antibody, V domains shown)
VH: QSVKESEGGLFKPTDTLTLTCTVSGFSLINYGVSWVRQAPGKGLEWIGYIGSAGSTYYATWAKSRATITRNTNLNTVTLKMTSLTAADTATYFCARAAYSAGSADAEDIWGPGTLVTVSS
VL: AYYMTQTPASVEAAVGGTVTIKCQASQSISNYVAWYQQKPGQPPKLLIYRASTLASGVSSRFSGSGSGTEFTLTISDLECADAATYYCHQGYSSSNVDNIFGGGTEVVVK
As for B2, the IC50 in experiment [2] is 0.17 nM; in experiment [3], 0.48 nM; in experiment [4], 0.86 nM; in [5], 0.369 nM; in experiment [7], 0.584 nM; in experiment [8], 1.72 nM. The IC50 turned out to be 1.29 nM in experiment [10] and 1.72 nM in experiment [14]. Besides, the Ki in experiment [6] came to 6.36 nM; in experiment [11], 6.35 nM. The IC50 (read off the curve) was 0.2 nM in experiment [9] and 1 to 2 nM in [13]. Moreover, the off-rate constant (koff) in experiment [12] worked out at 0.000574 s⁻¹.

B3: 8G10 (antibody, V domains shown)
VH: QSLEESGGDLVKPEGSLTLTCTASGFSFSTSYWICWVRQAPGKGLEWIACVYGLDVNIYYASWTEGRFTISKTSSTTVTLQVTSLTAADTATYFCARGGGSADFGFDLWGPGTLVTVSS
VL: DVVMTQTPASVSEPVGGTVTIKCQASENIYSLLAWYQQKPGQPPKVLIYDASDLASGVPSRFKGSGSGTQFTLTISDLECADAATYYCQATAYGSSGNAFGGGTEVVVK
Consider B3, for which the koff in experiment [12] was 0.000245 s⁻¹.

B4: hu10C5.L5H28 (antibody, V domains shown)
VH: EVQLVESGGGLVQPGGSLRLSCAASGFSLSSYGVTWVRQAPGKGLEWIGYITSNYGVSYYASWAKSRSTISRDTSKNTVYLQMGSLRAEDMAVYYCARENPDYGYAYDAWGQGTTVTVSS
VL: AIRMTQSPSSFSASTGDRVTITCQASESISNELSWYQQKPGKAPKLLIYYASTLASGVPSRFSGSGSGTDFTLTISSLQPEDFATYYCAQGFGSSGVENVFGGGTKVEIK
For B4, in experiment [1], the dissociation constant (Kd) was found to be 0.057 nM, the koff worked out at 0.00108 s⁻¹ and the kon is 1.9e+07 M⁻¹ s⁻¹.

B5: 8F5 (antibody, V domains shown)
VH: QSVKESEGGLFKPTDTLTLTCTVSGFSLSSYPISWVRQAPGNGLEWIGYITSEYGVAYYATWAESRSTITRNTNLNTVTLKMTSLTAADTATYFCVRENPTYGYAYDAWGPGTLVTVSS
VL: AYDLTQTPASVEAAVGGTVTINCQASESIGNELSWYQQKSGQPPKLLIYQASTLASGVPSRFKGSGSGTDFTLTISDLECADAATYYCAQGFSSSGVENVFGGGTEVVVK
Regarding B5, the IC50 in experiment [2] amounted to 0.149 nM; in [3], 0.16 nM; in [4] it was 0.76 nM; in [5], 0.069 nM; in experiment [7], 0.16 nM; in [8], 1.31 nM. Besides, the IC50 in experiment [10] came to 1.15 nM; in experiment [14] it was 1.31 nM; in [16], 0.241 nM. The Ki was 1.85 nM in experiment [6] and 1.91 nM in experiment [11]. The IC50 (read off the curve) in experiment [15] was 0.8 nM; in experiment [9], 0.1 to 0.2 nM; in [13], 1 nM. Moreover, the koff in [12] was determined as 0.000316 s⁻¹.

B6: 10C5 (antibody, V domains shown)
VH: QSLEESGGGLVKPTDTLTLTCTVSGFSLSSYGVTWVRQAPGRGLEWIGYITSNYGVSYYASWAKSRSTITRNTNLNTVTLKMTSLTAADTATYFCARENPDYGYAYDAWGPGTLVTVSV
VL: AYDMTQTPASLEAAVGGTVTINCQASESISNELSWYQQKPGQPPDLLIYYASTLASGVPSRFKGSGSGTEFTLTISDLECADAATYYCAQGFGSSGVENVFGGGTEVVVK
Turning to B6, the IC50 stood at 0.111 nM in experiment [2]; 0.08 nM in experiment [3]; 0.58 nM in experiment [4]; 0.0399 nM in experiment [5]; 0.123 nM in [7]; 0.311 nM in experiment [8]. Besides, the values for the IC50 in [10], in experiment [14] and in experiment [16] were 0.98 nM, 0.31 nM and 0.0795 nM, respectively. The Ki was found to be 0.0412 nM in experiment [6] and 0.15 nM in [11]. The values for the IC50 (read off the curve) in experiment [9] and in [13] were 0.1 nM and 1 nM, respectively. Further, in experiment [1], the Kd amounted to 0.0165 nM. For the same molecule, the koff in experiment [1] stood at 0.000292 s⁻¹; in experiment [12], 0.000126 s⁻¹. Moreover, the kon in [1] amounted to 1.78e+07 M⁻¹ s⁻¹.

B7: 2-3F4 (antibody, V domains shown)
VH: QSVEESRGGLIKPTDTLTLTCTASGFSLSNYGVSWVRQAPGNGLEYIGFIGYGGSTYYASWAKSRSTITRNTNLNTVTLQMTSLTAADTATYFCARLCGVDCADALDSWGPGTLVTVSS
VL: AYYMTQTPASVEVAVGGTVTIKCQASEDIGSYCSWYQQKPGQPPKLLIYDASDLASGVPSRFKGSGSGTDFTLTISGVQCDDAATYYCQQDYTGNNVDNTFGGGSEVVVK
Take B7: the IC50 in [2] was determined as 0.129 nM; in [3], 0.09 nM; in [4], 1.1 nM; in [5], 0.054 nM; in experiment [7], 0.173 nM; in [8], 0.384 nM. The IC50 was 1.02 nM in experiment [10], 0.38 nM in experiment [14] and 0.0279 nM in [16]. For the same molecule, the Ki in experiment [6] is 0.939 nM; in experiment [11], 1.14 nM. Further, the IC50 (read off the curve) worked out at 1 nM in experiment [15], 0.1 nM in experiment [9] and 1 nM in [13]. Moreover, the koff in [12] was 0.000184 s⁻¹.

B8: hu3-3F5.L5H19 (antibody, V domains shown)
VH: EVQLLESGGGLVQPGGSLRLSCAVSGFSLNDYGVSWVRQAPGKGLEWVGAIGSSGVAWYANFAKGRFTISRDNSKNTLYLQMNSLRAEDTAVYYCARDRDYGYRADDATSGMDLWGRGTLVTVSS
VL: AIRMTQSPSSFSASTGDRVTITCQASESIGNALAWYQQKPGKAPKLLIYDASDLASGVPSRFSGSGSGTDFTLTISSLQPEDFATYYCQQGDSHNNVDNIFGGGTKVEIK
For the molecule B8, in experiment [1], the Kd was 0.00414 nM, the koff was determined as 0.000201 s⁻¹ and the kon was 4.84e+07 M⁻¹ s⁻¹.

B9: hu3-3F5.L5H25 (antibody, human IgG1, V domains shown)
VH: EVQLLESGGGLVQPGGSLRLSCAASGFSLNDYGVSWVRQAPGKGLEWVGAIGSSGVAWYANFAKGRFTISRDTSKNTVYLQMNSLRAEDTAVYYCARDRDYGYRADDATSGMDLWGRGTLVTVSS
VL: AIRMTQSPSSFSASTGDRVTITCQASESIGNALAWYQQKPGKAPKLLIYDASDLASGVPSRFSGSGSGTDFTLTISSLQPEDFATYYCQQGDSHNNVDNIFGGGTKVEIK
Take B9: in experiment [1], the Kd worked out at 0.00914 nM, the koff was determined as 0.000235 s⁻¹ and the kon turned out to be 2.57e+07 M⁻¹ s⁻¹.

These data come from US20200040103A1.
